Measured values published in PMC4344507, “Structural and functional characterization of a cell cycle associated HDAC1/2 complex reveals the structural basis for complex assembly and nucleosome targeting” (Nucleic Acids Research, 2015).

Molecular target: the molecule itself
Test: crystal structure; DNTTIP1 (56–147), hanging drops at 22°C, 100 mM sodium acetate pH 4.6, 14% propan-2-ol; MAD phasing with SeMet protein; P212121

B1: Human DNTTIP1 (56–147) (domain or fragment, UniProt Q9H147 56-147, looked up)
chain: MTTSFTDPAISMDLLRAVLQPSINEEIQTVFNKYMKFFQKAALNVRDNVGEEVDAEQLIQEACRSCLEQAKLLFSDGEKVIPRLTHELPGIK
notes: DNTTIP1, human, residues 56-147; Native and selenomethionine substituted protein were both crystallized; six molecules (three dimers) in the asymmetric unit; also called DD; N-terminal dimerization domain; source: E. coli Rosetta-pLysS or B834(DE3), purified (Ni-NTA, Resource Q, Superdex S75)
stoichiometry N: 2
